Changes are numbered by the printed parent chain. Names and notes keep the numbering of the source.
T1: AmtB (EcAmtB) (Escherichia coli, UniProt P69681)
T1 construct: AmtB(His)6 from pET22b(+), expressed in E. coli C43, purified, reconstituted into liposomes; homotrimer; 1U7G for the simulations only
T1 sequence (P69681 23-428): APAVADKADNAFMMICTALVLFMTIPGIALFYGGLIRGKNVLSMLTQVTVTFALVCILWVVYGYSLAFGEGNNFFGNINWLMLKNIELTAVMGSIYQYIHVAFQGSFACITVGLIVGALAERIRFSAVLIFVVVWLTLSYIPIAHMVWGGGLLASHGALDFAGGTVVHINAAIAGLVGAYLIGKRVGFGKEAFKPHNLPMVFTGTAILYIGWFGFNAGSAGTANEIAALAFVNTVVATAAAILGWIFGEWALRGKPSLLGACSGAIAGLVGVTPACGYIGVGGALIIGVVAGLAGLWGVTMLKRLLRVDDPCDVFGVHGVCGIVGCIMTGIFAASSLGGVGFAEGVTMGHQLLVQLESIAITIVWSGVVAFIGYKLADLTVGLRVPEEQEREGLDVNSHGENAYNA

B1: AmtB (EcAmtB) (Escherichia coli K-12) (protein)
chain: T1 sequence (P69681 23-428)
notes: AmtB(His)6 from pET22b(+), expressed in E. coli C43, purified, reconstituted into liposomes; homotrimer; 1U7G for the simulations only
B2: AmtB (EcAmtB) (Escherichia coli K-12; H190E) (protein)
chain: T1 sequence (P69681 23-428) with H168E
notes: as for B1
B3: AmtB (EcAmtB) (Escherichia coli K-12; H190D) (protein)
chain: T1 sequence (P69681 23-428) with H168D
notes: as for B1

How the values were obtained:
AmtB (EcAmtB) = molecular target: T1, AmtB (EcAmtB); assay: solid supported membrane electrophysiology (SSME), proteoliposomes; type: biochemical; settings: read-out: Ammonium; transport; maximum transient current amplitude
From the text: (§1) solid supported membrane electrophysiology (SSME), proteoliposomes on AmtB (EcAmtB)

[1] = substrate: CN; assay: as above; type: biochemical, Escherichia coli; settings: transport; maximum transient current amplitude
From the text: as §1

purified protein = substrate: N; assay: purified protein; settings: transport; maximum transient current amplitude

Km (AmtB (EcAmtB)) [mM]	Molecule	Km [1] [mM]	Km (purified protein) [mM]
0.8 ± 0.1	N [ammonium]	–	–
–	B1	49.86 ± 4.76	–
–	B2	86.00 ± 9.46	12.87 ± 7.79
–	B3	55.09 ± 12.67	14.02 ± 4.08

— article PMC9040831 (mBio, 2022)
